Results: publication PMC4780765, “Role of Interaction and Nucleoside Diphosphate Kinase B in Regulation of the Cystic Fibrosis Transmembrane Conductance Regulator Function by cAMP-Dependent Protein Kinase A” (PLoS ONE, 2016)

Columns and labels:
[1] = target: T1, cystic fibrosis transmembrane conductance regulator (human (endogenous in 16HBE14o-), UniProt P13569 1-1480); experiment: co-IP; CFTR or NDPK-B immunoprecipitates from 16HBE14o- membranes; cells untreated, treated with FSK (10 μM)/IBMX (100 μM) for 30 min, or with PKI (100 nM) or H-89 (1 μM) for 5 min before FSK/IBMX; conditions: partners not purified
T1 construct: CFTR, endogenous in the wild type human bronchial epithelial cell line 16HBE14o-; band at 175 kDa; also called CFTR; ABCC7; source: endogenous, 16HBE14o- cells (membrane fraction, lysates, immunoprecipitates)

[2] = target: T1, cystic fibrosis transmembrane …; experiment: far-Western, overlay or dot blot; blot of SDS-PAGE-separated 16HBE14o- membrane proteins (100 μg) overlaid with 16HBE14o- cytosol proteins (0.5 mg) in TBS with 5% milk, 60 min at room temperature, without or with cAMP, 8-Br-cAMP or dioctanoyl-cAMP (100 μM); probed for NDPK-B; conditions: partners not purified
[3] = target: T1, cystic fibrosis transmembrane …; experiment: far-Western, overlay or dot blot; blot of a CFTR immunoprecipitate or of 16HBE14o- membrane proteins, 100 μg, overlaid with 1 μg recombinant NDPK-B without or with cAMP or 8-Br-cAMP (100 μM); probed for NDPK-B; conditions: one partner purified

T1 sequence (P13569 whole entry): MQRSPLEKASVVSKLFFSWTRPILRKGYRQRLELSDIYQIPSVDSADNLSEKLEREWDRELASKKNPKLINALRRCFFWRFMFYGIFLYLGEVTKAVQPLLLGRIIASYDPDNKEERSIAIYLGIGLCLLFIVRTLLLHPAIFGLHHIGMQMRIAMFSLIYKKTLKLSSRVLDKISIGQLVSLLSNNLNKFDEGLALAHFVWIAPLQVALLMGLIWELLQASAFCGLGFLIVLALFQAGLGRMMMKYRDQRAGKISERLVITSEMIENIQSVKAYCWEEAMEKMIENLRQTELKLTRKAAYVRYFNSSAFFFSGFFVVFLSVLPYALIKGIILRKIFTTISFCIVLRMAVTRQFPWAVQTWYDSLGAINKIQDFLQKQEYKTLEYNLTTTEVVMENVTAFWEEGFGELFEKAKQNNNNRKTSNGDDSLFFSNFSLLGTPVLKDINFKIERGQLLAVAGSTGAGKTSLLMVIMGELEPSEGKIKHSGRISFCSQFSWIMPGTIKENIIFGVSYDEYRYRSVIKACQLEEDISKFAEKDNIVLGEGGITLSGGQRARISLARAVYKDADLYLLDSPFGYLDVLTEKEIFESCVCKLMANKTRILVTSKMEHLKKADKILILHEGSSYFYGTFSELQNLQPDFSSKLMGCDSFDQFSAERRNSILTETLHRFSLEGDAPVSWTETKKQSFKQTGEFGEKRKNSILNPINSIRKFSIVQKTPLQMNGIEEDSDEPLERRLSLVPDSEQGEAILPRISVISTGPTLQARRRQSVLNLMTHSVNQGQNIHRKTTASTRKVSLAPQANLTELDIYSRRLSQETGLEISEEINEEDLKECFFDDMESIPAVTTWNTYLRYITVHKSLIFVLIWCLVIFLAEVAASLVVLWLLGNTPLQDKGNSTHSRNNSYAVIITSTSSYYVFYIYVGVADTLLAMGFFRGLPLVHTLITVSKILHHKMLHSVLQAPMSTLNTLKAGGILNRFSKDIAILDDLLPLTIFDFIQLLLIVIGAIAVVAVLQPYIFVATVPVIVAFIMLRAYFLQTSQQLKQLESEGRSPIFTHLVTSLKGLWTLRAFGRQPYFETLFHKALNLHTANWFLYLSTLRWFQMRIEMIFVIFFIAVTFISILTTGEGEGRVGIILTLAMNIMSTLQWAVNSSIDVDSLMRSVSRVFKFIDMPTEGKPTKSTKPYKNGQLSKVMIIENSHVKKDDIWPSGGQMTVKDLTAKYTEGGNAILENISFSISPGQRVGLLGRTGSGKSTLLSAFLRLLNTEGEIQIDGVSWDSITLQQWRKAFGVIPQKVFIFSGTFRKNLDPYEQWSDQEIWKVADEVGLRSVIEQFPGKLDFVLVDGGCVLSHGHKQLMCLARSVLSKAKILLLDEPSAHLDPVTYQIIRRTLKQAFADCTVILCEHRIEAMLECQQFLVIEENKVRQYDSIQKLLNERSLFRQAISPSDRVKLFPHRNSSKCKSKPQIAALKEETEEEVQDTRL

Row | fold increase of co-immunoprecipitation with FSK/IBMX over untreated cells [1] | fold increase of NDPK-B staining at 175 kDa with dioctanoyl cAMP (100 μM) over overlay without cAMP [2] | fold increase of NDPK-B staining at 175 kDa with 8-Br-cAMP (100 μM) over overlay without cAMP [3] | Binder
1 | 3 fold | 20 fold |  | nucleoside diphosphate kinase B (natural protein, human (endogenous in 16HBE14o-), UniProt P22392 1-152, looked up, nucleoside diphosphate kinase B (NDPK-B, NM23-H2), endogenous in the human bronchial epithelial cell line 16HBE14o-; also called NDPK-B; NDPK B; source: endogenous, 16HBE14o- cells (membrane and cytosol fractions, lysates)) MANLERTFIAIKPDGVQRGLVGEIIKRFEQKGFRLVAMKFLRASEEHLKQHYIDLKDRPFFPGLVKYMNSGPVVAMVWEGLNVVKTGRVMLGETNPADSKPGTIRGDFCIQVGRNIIHGSDSVKSAEKEISLWFKPEELVDYKSCAHDWVYE
2 |  |  | 20 fold | human recombinant nucleoside diphosphate kinase B isoform (natural protein, human recombinant nucleoside diphosphate kinase B (NDPK-B, NM23-H2); 16 kDa on the gel; also called NDPK-B; purified NDPK-B; source: recombinant, purified; prepared and provided by Professor Ioan Lascu) ANLERTFIAIKPDGVQRGLVGEIIKRFEQKGFRLVAMKFLRASEEHLKQHYIDLKDRPFFPGLVKYMNSGPVVAMVWEGLNVVKTGRVMLGETNPADSKPGTIRGDFCIQVGRNIIHGSDSVKSAEKEISLWFKPEELVDYKSCAHDWVYE
